{"source": "IntAct's records for PubMed 17057713", "parents": {"B1": {"name": "A-type potassium channel modulatory protein KCNIP1 (Homo sapiens), Q9NZI2 (parent)", "chain": "MGAVMGTFSSLQTKQRRPSKDIAWWYYQYQRDKIEDELEMTMVCHRPEGLEQLEAQTNFTKRELQVLYRGFKNECPSGVVNEDTFKQIYAQFFPHGDASTYAHYLFNAFDTTQTGSVKFEDFVTALSILLRGTVHEKLRWTFNLYDINKDGYINKEEMMDIVKAIYDMMGKYTYPVLKEDTPRQHVDVFFQKMDKNKDGIVTLDEFLESCQEDDNIMRSLQLFQNVM", "partner": "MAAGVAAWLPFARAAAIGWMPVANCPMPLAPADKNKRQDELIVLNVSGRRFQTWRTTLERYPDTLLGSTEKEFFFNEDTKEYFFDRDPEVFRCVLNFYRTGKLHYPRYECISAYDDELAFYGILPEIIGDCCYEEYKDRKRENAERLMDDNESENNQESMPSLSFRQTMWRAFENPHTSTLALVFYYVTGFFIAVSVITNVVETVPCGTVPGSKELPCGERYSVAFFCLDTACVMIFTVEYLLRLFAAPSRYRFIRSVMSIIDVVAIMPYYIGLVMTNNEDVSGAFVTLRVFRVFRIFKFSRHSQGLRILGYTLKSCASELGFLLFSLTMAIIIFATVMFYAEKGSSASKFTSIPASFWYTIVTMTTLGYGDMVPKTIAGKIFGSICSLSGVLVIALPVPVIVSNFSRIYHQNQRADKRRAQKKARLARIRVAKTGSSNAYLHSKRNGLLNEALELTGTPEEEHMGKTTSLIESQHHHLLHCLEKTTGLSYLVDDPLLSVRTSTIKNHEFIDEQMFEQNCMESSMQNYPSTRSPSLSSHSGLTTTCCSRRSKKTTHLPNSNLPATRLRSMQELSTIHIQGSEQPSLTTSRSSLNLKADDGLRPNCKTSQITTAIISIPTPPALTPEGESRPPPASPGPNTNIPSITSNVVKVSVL"}}, "data": [{"variants_of": "B1", "details": "with kcnd3_rat Kcnd3, Q62897", "values": [{"variant": "MGAVMGTFSSLQTKQRRPSKDIAWWYYQYQRDKIEDELEMTMVCHRPEGLEQLEAQTNFTKRELQVLYRGFKNECPSGVVNEDTFKQIYAQFFPHGDASTYAHYLFNAFDTTQTGSVKFEDFVTALSILLRGTVHEKLRWTFNLYAINKDGYINKEEMMDIVKAIYDMMGKYTYPVLKEDTPRQHVDVFFQKMAKNKDGIVTLDEFLESCQEDDNIMRSLQLFQNVM", "note": "[D146A;D194A]", "effect of a mutation on the interaction": "decreasing interaction strength"}]}]}
